Test results from article doi:10.1101/2024.05.23.595586.

Target: TREM2 (a.a. 19-134), biotinylated, WT (human) (UniProt Q9NZC2)
Assay: BLI

Chain of TREM2 (a.a. 19-134), biotinylated, WT (human) (Q9NZC2 19-134): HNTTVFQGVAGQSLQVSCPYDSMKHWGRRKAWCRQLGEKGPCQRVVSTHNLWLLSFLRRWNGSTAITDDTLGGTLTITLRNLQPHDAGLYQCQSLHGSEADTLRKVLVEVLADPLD

Kd: 42.5 nM
Substance: oligomeric amyloid beta 42 (oAβ42) WT (peptide)
